In publication PMC5034880:

Molecular target: T1, PGL-3 (1-633)-6xHis-mEGFP (ΔRGG) (Caenorhabditis elegans, UniProt G5EBV6 1-633)
T1 sequence: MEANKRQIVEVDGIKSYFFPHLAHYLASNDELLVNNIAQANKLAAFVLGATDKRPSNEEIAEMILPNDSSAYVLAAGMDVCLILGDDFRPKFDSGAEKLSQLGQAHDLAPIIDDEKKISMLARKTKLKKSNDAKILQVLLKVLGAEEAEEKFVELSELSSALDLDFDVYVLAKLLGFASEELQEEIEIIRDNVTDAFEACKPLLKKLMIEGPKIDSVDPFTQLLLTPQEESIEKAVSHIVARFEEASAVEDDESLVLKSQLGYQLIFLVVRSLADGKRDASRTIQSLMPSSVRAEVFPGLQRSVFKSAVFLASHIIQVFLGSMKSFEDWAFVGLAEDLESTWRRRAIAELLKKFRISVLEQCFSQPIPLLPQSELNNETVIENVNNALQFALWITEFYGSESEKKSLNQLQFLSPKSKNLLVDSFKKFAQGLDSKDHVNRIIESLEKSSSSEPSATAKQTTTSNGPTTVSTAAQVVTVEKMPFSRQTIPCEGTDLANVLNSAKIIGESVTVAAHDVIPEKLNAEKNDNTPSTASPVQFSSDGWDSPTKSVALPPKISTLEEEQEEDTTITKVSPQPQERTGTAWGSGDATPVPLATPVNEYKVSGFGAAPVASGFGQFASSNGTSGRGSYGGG
Assay: filter binding

In the case of GUUGUUGUUGUUGUUGUUGUUGUUGUUGUUAAAAAAAAAA (ssRNA) [(GUU)10A10 RNA], the binding signal is reported as > 60 fold weaker than full-length PGL-3.
